Measurements reported in patent US20250152742A1, “COMPOSITIONS AND METHODS FOR NEUROLOGICAL DISEASES” (Trames Bio, Inc., priority 2022, published 2025).
Positions count from the first letter of the chain named. In names and notes the source's numbering stands.

Tested on: engineered chimeric receptor SEQ ID NO: 33 and its mutants (human α7-nAChR ligand binding domain / human GlyRα1 ion pore domain) in Lenti-X 293T cells
Test: YFP fluorescence quenching anion reporter plate reader assay (percent quench, EC50)
Type: cell-based
Conditions: for YFP fluorescence quenching using CNL001 (percent quench): receptor named in row; for YFP fluorescence quenching using Varenicline, 3 nM var: ligand Varenicline 3 nM; for YFP fluorescence quenching using Varenicline, 30 nM var: ligand Varenicline 30 nM; for YFP fluorescence quenching using Varenicline, 300 nM var: ligand Varenicline 300 nM; for YFP fluorescence quenching using Varenicline, 500 nM var: ligand Varenicline 500 nM; for YFP fluorescence quenching using Varenicline, 1 uM var: ligand Varenicline 1 uM
In short: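 Lenti-X 293T cells co-expressing an anion-quenchable YFP were transiently transfected with receptor DNA, then ligand was added in NaI-substituted buffer (pH 7.2) after 30 min at 37 °C. Fluorescence was read about 2 min; percent quench = mean of last 10 s over 15 s pre-ligand baseline.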

[1] = 1 nM CNL001, first column so headed
[2] = 1 nM CNL001, second column so headed
[3] = 1 nM brd (TC-5619/Bradanicline)
[4] = 3 nM brd (TC-5619/Bradanicline)
[5] = 10 nM CNL001, first column so headed
[6] = 10 nM CNL001, second column so headed
[7] = 10 nM brd (TC-5619/Bradanicline)
[8] = 30 nM brd (TC-5619/Bradanicline)
[9] = 50 nM CNL001, first column so headed
[10] = 50 nM CNL001, second column so headed
[11] = 100 nM CNL001, first column so headed
[12] = 100 nM CNL001, second column so headed
[13] = 100 nM brd (TC-5619/Bradanicline)
[14] = 300 nM brd (TC-5619/Bradanicline)
[15] = 1 uM CNL001, first column so headed
[16] = 1 uM CNL001, second column so headed

B1: CODA1055: engineered receptor: R101W, Y115E, Y210W in SEQ ID NO: 33 (protein)
chain: MRCSPGGVWLALAASLLHVSLQGEFQRKLYKELVKNYNPLERPVANDSQPLTVYFSLSLLQIMDVDEKNQVLTTNIWLQMSWTDHYLQWNVSEYPGVKTVWFPDGQIWKPDILLENSADERFDATFHTNVLVNSSGHCQYLPPGIFKSSCPMDLKNFPMDVQTCKLKFGSWSYGGWSLDLQMQEADISGYIPNGEWDLVGIPGKRSERFWECCKEPYPDVTFTVTMRRRMGYYLIQMYIPSLLIVILSWISFWINMDAAPARVGLGITTVLTMTTQSSGSRASLPKVSYVKAIDIWMAVCLLFVFSALLEYAAVNFVSRQHKELLRFRRKRRHHKSPMLNLFQEDEAGEGRFNFSAYGMGPACLQAKDGISVKGANNSNTTNPPPAPSKSPEEMRKLFIQRAKKIDKISRIGFPMAFLIFNMFYWIIYKIVRREDVHNQ
modifications: synthetic sequence of chimeric LGIC
YFP fluorescence quenching using CNL001 (percent quench) [1]: −12.889% | YFP fluorescence quenching using CNL001 (percent quench) [2]: −13.295% | YFP fluorescence quenching using TC-5619/Bradanicline (percent quench) [3]: −8.113% | YFP fluorescence quenching using TC-5619/Bradanicline (percent quench) [4]: −11.136% | YFP fluorescence quenching using CNL001 (percent quench) [5]: −10.401% | YFP fluorescence quenching using CNL001 (percent quench) [6]: −7.981% | YFP fluorescence quenching using TC-5619/Bradanicline (percent quench) [7]: 38.755% | YFP fluorescence quenching using TC-6683 (percent quench) (30 nM TC-6683): −30.056% | YFP fluorescence quenching using TC-5619/Bradanicline (percent quench) [8]: 39.111% | YFP fluorescence quenching using CNL001 (percent quench) [9]: −1.972% | YFP fluorescence quenching using CNL001 (percent quench) [10]: −1.661% | YFP fluorescence quenching using ABT-126 (percent quench) (50 nM abt (ABT-126)): −21.36% | YFP fluorescence quenching using CNL001 (percent quench) [11]: 0.277% | YFP fluorescence quenching using CNL001 (percent quench) [12]: 4.325% | YFP fluorescence quenching using ABT-126 (percent quench) (100 nM abt (ABT-126)): −22.28% | YFP fluorescence quenching using TC-5619/Bradanicline (percent quench) [13]: 61.378% | YFP fluorescence quenching using TC-6683 (percent quench) (300 nM TC-6683): −30.801% | YFP fluorescence quenching using ABT-126 (percent quench) (300 nM abt (ABT-126)): −14.63% | YFP fluorescence quenching using TC-5619/Bradanicline (percent quench) [14]: 52.398% | YFP fluorescence quenching using CNL001 (percent quench) [15]: 2.88% | YFP fluorescence quenching using CNL001 (percent quench) [16]: 3.259% | YFP fluorescence quenching using ABT-126 (percent quench) (1 uM abt (ABT-126)): −7.34% | YFP fluorescence quenching using TC-6683 (percent quench) (3 uM TC-6683): −25.558% | YFP fluorescence quenching using TC-6683 (percent quench) (30 uM TC-6683): −18.295% | YFP fluorescence quenching using TC-6683 (percent quench) (100 uM TC-6683): −17.554% | YFP fluorescence quenching (percent quench) (100 uM ach (acetylcholine)): −15.63% | YFP fluorescence quenching (percent quench) (300 uM ach (acetylcholine)): −12.05% | YFP fluorescence quenching (percent quench) (500 uM ach (acetylcholine)): −12.87% | YFP fluorescence quenching (percent quench) (1 mM ach (acetylcholine)): −11.55% | YFP fluorescence quenching (percent quench) (3 mM ach (acetylcholine)): 12.68% | YFP fluorescence quenching (percent quench) (10 mM ach (acetylcholine)): 37.58% | YFP fluorescence quenching using Varenicline, 3 nM var (first column): 0.468 | YFP fluorescence quenching using Varenicline, 3 nM var (second column): −10.015 | YFP fluorescence quenching using Varenicline, 30 nM var (first column): −15.532 | YFP fluorescence quenching using Varenicline, 30 nM var (second column): −14.462 | YFP fluorescence quenching using Varenicline, 300 nM var (first column): −17.027 | YFP fluorescence quenching using Varenicline, 300 nM var (second column): −15.59 | YFP fluorescence quenching using Varenicline, 500 nM var (first column): −13.343 | YFP fluorescence quenching using Varenicline, 500 nM var (second column): −10.702 | YFP fluorescence quenching using Varenicline, 1 uM var (first column): −6.604 | YFP fluorescence quenching using Varenicline, 1 uM var (second column): −7.612

B2: CODA1056: engineered receptor: R101F, Y115E, Y210W in SEQ ID NO: 33 (protein)
chain: B1 chain with W101F
modifications: synthetic sequence of chimeric LGIC
YFP fluorescence quenching using CNL001 (percent quench) [1]: −8.104% | YFP fluorescence quenching using CNL001 (percent quench) [2]: −12.153% | YFP fluorescence quenching using TC-5619/Bradanicline (percent quench) [3]: −7.894% | YFP fluorescence quenching using TC-5619/Bradanicline (percent quench) [4]: −11.812% | YFP fluorescence quenching using CNL001 (percent quench) [5]: −10.462% | YFP fluorescence quenching using CNL001 (percent quench) [6]: −4.735% | YFP fluorescence quenching using TC-5619/Bradanicline (percent quench) [7]: 36.211% | YFP fluorescence quenching using TC-6683 (percent quench) (30 nM TC-6683): −19.889% | YFP fluorescence quenching using TC-5619/Bradanicline (percent quench) [8]: 40.624% | YFP fluorescence quenching using CNL001 (percent quench) [9]: −8.617% | YFP fluorescence quenching using CNL001 (percent quench) [10]: −1.606% | YFP fluorescence quenching using ABT-126 (percent quench) (50 nM abt (ABT-126)): −20.96% | YFP fluorescence quenching using CNL001 (percent quench) [11]: −1.243% | YFP fluorescence quenching using CNL001 (percent quench) [12]: 1.838% | YFP fluorescence quenching using ABT-126 (percent quench) (100 nM abt (ABT-126)): −21.95% | YFP fluorescence quenching using TC-5619/Bradanicline (percent quench) [13]: 65.869% | YFP fluorescence quenching using TC-6683 (percent quench) (300 nM TC-6683): −22.443% | YFP fluorescence quenching using ABT-126 (percent quench) (300 nM abt (ABT-126)): −10.96% | YFP fluorescence quenching using TC-5619/Bradanicline (percent quench) [14]: 59.661% | YFP fluorescence quenching using CNL001 (percent quench) [15]: −0.567% | YFP fluorescence quenching using CNL001 (percent quench) [16]: 4.663% | YFP fluorescence quenching using ABT-126 (percent quench) (1 uM abt (ABT-126)): 10.79% | YFP fluorescence quenching using TC-6683 (percent quench) (3 uM TC-6683): −12.623% | YFP fluorescence quenching using TC-6683 (percent quench) (30 uM TC-6683): −10.728% | YFP fluorescence quenching using TC-6683 (percent quench) (100 uM TC-6683): −10.959% | YFP fluorescence quenching (percent quench) (100 uM ach (acetylcholine)): −20.55% | YFP fluorescence quenching (percent quench) (300 uM ach (acetylcholine)): −19.32% | YFP fluorescence quenching (percent quench) (500 uM ach (acetylcholine)): −19.75% | YFP fluorescence quenching (percent quench) (1 mM ach (acetylcholine)): −14.08% | YFP fluorescence quenching (percent quench) (3 mM ach (acetylcholine)): 14.07% | YFP fluorescence quenching (percent quench) (10 mM ach (acetylcholine)): 25.7%

B3: CODA1138: engineered receptor: W77F, R101F, L131D in SEQ ID NO: 33 (protein)
chain: B1 chain with W77F, W101F, E115Y, L131D, W210Y
modifications: synthetic sequence of chimeric LGIC
YFP fluorescence quenching using CNL001 (percent quench) [1]: −6.175% | YFP fluorescence quenching using CNL001 (percent quench) [2]: 5.89% | YFP fluorescence quenching (percent quench) (1 nM CNL002): −2.209% | YFP fluorescence quenching using CNL001 (percent quench) [5]: −2.032% | YFP fluorescence quenching using CNL001 (percent quench) [6]: 7.601% | YFP fluorescence quenching (percent quench) (10 nM CNL002): 43.044% | YFP fluorescence quenching using CNL001 (percent quench) [9]: 9.263% | YFP fluorescence quenching using CNL001 (percent quench) [10]: 4.423% | YFP fluorescence quenching (percent quench) (50 nM CNL002): 73.418% | YFP fluorescence quenching using ABT-126 (percent quench) (50 nM abt (ABT-126)): −11.71% | YFP fluorescence quenching using CNL001 (percent quench) [11]: 24% | YFP fluorescence quenching using CNL001 (percent quench) [12]: 30.448% | YFP fluorescence quenching (percent quench) (100 nM CNL002): 81.66% | YFP fluorescence quenching using ABT-126 (percent quench) (100 nM abt (ABT-126)): −5.13% | YFP fluorescence quenching using ABT-126 (percent quench) (300 nM abt (ABT-126)): 15.09% | YFP fluorescence quenching using CNL001 (percent quench) [15]: 73.823% | YFP fluorescence quenching using CNL001 (percent quench) [16]: 73.271% | YFP fluorescence quenching (percent quench) (1 uM CNL002): 81.69% | YFP fluorescence quenching using ABT-126 (percent quench) (1 uM abt (ABT-126)): 56.63% | YFP fluorescence quenching using ABT-126 (percent quench) (10 uM abt (ABT-126)): 75.93% | YFP fluorescence quenching (percent quench) (10 uM ach (acetylcholine)): −12.92% | YFP fluorescence quenching (percent quench) (30 uM ach (acetylcholine)): −15.36% | YFP fluorescence quenching (percent quench) (100 uM ach (acetylcholine)): −19.35% | YFP fluorescence quenching (percent quench) (300 uM ach (acetylcholine)): −14.79% | YFP fluorescence quenching (percent quench) (1 mM ach (acetylcholine)): 37.5% | YFP fluorescence quenching (percent quench) (3 mM ach (acetylcholine)): 61.73% | YFP fluorescence quenching using Varenicline, 3 nM var (first column): 3.893 | YFP fluorescence quenching using Varenicline, 3 nM var (second column): 1.107 | YFP fluorescence quenching using Varenicline, 30 nM var (first column): 0.972 | YFP fluorescence quenching using Varenicline, 30 nM var (second column): 0.872 | YFP fluorescence quenching using Varenicline, 300 nM var (first column): 2.282 | YFP fluorescence quenching using Varenicline, 300 nM var (second column): −0.288 | YFP fluorescence quenching using Varenicline, 500 nM var (first column): 3.637 | YFP fluorescence quenching using Varenicline, 500 nM var (second column): −1.804 | YFP fluorescence quenching using Varenicline, 1 uM var (first column): −1.84 | YFP fluorescence quenching using Varenicline, 1 uM var (second column): 6.36
